Common to all, as to experiment: cell_activity; CHO extrachromosomal LacZ assay
Series [1] deals with T1, I-CreI heterodimer HBB8.3_H3 / HBB8.4_D4 (Chlamydomonas reinhardtii, UniProt P05725;P05725 SEQ:1-167,SEQ:1-167).
T1 chain 1: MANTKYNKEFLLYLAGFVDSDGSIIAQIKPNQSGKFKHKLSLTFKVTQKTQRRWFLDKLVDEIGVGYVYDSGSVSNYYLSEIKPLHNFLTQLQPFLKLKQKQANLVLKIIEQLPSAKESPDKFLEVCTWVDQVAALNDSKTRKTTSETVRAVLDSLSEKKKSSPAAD
T1 chain 2: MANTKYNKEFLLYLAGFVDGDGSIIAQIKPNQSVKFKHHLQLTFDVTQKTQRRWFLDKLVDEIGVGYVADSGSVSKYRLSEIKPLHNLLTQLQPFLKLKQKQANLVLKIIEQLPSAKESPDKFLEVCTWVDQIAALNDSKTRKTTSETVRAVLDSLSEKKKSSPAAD

Series [2] addresses T2, I-CreI heterodimer HBB8.3_B3 / HBB8.4_B4 (Chlamydomonas reinhardtii, UniProt P05725;P05725 SEQ:1-167,SEQ:1-167).
T2 chain 1: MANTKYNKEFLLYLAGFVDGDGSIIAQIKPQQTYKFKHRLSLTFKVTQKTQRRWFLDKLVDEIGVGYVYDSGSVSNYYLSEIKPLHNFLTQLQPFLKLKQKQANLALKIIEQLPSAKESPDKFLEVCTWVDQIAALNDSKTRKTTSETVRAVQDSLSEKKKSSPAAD
T2 chain 2: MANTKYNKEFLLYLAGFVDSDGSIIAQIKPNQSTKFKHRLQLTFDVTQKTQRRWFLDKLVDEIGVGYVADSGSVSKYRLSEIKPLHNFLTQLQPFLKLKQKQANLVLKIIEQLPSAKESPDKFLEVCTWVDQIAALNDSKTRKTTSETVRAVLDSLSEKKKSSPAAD

In series [3] the target is T3, I-CreI heterodimer HBB8.3_K3 / HBB8.4_B4 (Chlamydomonas reinhardtii, UniProt P05725;P05725 SEQ:1-167,SEQ:1-167).
T3 chain 1: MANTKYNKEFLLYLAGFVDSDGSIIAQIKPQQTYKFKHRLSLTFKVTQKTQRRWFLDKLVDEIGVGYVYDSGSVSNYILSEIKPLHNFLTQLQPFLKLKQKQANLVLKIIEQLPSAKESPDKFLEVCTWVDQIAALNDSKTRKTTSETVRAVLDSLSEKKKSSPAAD
T3 chain 2: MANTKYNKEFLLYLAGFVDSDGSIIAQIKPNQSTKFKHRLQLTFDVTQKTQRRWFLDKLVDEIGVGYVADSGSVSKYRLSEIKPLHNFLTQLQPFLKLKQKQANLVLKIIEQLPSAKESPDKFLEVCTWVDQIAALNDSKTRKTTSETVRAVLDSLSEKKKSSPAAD

For series [4], the target named is T4, I-CreI heterodimer HBB8.3_B3 / HBB8.4_C4 (Chlamydomonas reinhardtii, UniProt P05725;P05725 SEQ:1-167,SEQ:1-167).
T4 chain 1: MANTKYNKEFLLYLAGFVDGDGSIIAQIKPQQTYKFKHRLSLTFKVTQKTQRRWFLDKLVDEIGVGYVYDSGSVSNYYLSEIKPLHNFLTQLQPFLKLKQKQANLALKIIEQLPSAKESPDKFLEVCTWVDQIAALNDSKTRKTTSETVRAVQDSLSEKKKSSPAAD
T4 chain 2: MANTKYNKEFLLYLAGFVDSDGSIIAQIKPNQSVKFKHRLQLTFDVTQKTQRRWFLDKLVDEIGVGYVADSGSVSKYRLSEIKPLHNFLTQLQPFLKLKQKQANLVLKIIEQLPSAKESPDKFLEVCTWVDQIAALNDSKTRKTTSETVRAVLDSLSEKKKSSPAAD

Series [5] has as its target T5, I-CreI heterodimer HBB8.3_J3 / HBB8.4_C4 (Chlamydomonas reinhardtii, UniProt P05725;P05725 SEQ:1-167,SEQ:1-167).
T5 chain 1: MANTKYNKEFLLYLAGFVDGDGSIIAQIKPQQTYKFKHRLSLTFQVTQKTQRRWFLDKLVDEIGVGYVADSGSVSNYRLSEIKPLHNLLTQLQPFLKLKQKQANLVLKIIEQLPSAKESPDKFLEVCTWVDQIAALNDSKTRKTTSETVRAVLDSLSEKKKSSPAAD
T5 chain 2: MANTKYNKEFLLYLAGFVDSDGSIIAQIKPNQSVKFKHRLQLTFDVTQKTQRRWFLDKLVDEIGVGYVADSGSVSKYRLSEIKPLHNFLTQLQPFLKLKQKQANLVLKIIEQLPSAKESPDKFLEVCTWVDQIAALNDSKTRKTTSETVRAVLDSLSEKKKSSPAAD

Series [6] concerns the target T6, I-CreI heterodimer HBB8.3_A3 / HBB8.4_C4 (Chlamydomonas reinhardtii, UniProt P05725;P05725 SEQ:1-167,SEQ:1-167).
T6 chain 1: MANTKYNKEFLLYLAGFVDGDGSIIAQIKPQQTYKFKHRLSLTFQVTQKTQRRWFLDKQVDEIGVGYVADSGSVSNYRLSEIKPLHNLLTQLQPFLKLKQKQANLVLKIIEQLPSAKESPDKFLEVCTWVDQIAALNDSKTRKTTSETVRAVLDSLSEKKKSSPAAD
T6 chain 2: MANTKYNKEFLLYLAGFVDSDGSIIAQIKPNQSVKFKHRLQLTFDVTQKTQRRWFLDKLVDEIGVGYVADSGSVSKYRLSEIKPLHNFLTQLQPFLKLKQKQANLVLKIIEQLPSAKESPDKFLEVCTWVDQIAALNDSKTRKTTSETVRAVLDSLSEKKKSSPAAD

Series [7] deals with T7, I-CreI heterodimer HBB8.3_D3 / HBB8.4_A4 (Chlamydomonas reinhardtii, UniProt P05725;P05725 SEQ:1-167,SEQ:1-167).
T7 chain 1: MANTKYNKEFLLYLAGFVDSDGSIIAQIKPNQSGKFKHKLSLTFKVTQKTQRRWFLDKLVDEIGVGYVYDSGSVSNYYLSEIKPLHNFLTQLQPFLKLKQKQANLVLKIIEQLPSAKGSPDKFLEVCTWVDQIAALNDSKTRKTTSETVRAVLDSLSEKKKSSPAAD
T7 chain 2: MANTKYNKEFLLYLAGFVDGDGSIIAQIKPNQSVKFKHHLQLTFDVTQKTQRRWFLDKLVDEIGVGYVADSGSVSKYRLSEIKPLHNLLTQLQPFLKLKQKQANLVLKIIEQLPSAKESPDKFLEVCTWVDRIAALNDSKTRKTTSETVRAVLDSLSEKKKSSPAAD

Series [8] has as its target T8, I-CreI heterodimer HBB8.3_I3 / HBB8.4_C4 (Chlamydomonas reinhardtii, UniProt P05725;P05725 SEQ:1-167,SEQ:1-167).
T8 chain 1: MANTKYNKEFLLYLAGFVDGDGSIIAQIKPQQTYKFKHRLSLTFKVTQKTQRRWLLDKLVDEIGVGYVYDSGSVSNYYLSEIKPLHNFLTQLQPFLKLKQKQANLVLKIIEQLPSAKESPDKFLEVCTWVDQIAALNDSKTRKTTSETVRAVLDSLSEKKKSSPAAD
T8 chain 2: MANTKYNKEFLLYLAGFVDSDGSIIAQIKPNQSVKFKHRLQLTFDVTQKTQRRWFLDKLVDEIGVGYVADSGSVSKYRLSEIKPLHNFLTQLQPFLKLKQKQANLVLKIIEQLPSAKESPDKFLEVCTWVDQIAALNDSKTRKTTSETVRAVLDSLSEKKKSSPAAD

Series [9] deals with T9, I-CreI heterodimer HBB8.3_J3 / HBB8.4_B4 (Chlamydomonas reinhardtii, UniProt P05725;P05725 SEQ:1-167,SEQ:1-167).
T9 chain 1: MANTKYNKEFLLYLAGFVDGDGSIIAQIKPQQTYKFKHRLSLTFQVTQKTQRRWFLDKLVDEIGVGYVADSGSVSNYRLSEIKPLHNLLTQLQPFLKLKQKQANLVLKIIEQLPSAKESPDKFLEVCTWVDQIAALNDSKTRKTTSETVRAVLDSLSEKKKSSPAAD
T9 chain 2: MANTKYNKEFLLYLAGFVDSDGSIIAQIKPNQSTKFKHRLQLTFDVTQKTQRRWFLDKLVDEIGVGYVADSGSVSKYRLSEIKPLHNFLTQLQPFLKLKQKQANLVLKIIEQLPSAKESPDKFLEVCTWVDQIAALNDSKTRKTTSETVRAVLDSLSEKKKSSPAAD

The target in series [10] is T10, I-CreI heterodimer HBB8.3_K3 / HBB8.4_D4 (Chlamydomonas reinhardtii, UniProt P05725;P05725 SEQ:1-167,SEQ:1-167).
T10 chain 1: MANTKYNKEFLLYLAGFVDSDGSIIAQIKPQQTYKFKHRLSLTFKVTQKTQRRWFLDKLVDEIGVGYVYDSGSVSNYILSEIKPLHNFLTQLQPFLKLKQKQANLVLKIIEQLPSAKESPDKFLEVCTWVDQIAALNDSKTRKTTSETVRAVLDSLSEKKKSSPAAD
T10 chain 2: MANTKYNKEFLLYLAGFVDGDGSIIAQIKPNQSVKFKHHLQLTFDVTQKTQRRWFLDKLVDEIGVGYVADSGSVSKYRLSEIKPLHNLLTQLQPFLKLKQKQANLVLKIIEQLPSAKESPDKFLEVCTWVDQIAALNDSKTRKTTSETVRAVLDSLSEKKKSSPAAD

B1: HBB6 (dsDNA)
DNA 1: CTGACTCCTGAGGAGAAGTCTG
DNA 2: CAGACTTCTCCTCAGGAGTCAG
In the case of B1, the activity in [1] came out at 1.84 absorbance units; in series [2] it was 1.21 absorbance units; in series [3], 1.57 absorbance units; in [4], 1.86 absorbance units; in [5], 1.88 absorbance units; in [6], 0.68 absorbance units. In addition, the activity in series [7] turned out to be 1.23 absorbance units; in [8], 2.36 absorbance units; in series [9], 1.75 absorbance units; in [10] it was 1.63 absorbance units.

B2: HBB8 (dsDNA)
DNA 1: CTGACTCCTGTGGAGAAGTCTG
DNA 2: CAGACTTCTCCACAGGAGTCAG
As to B2, the activity in series [1] was 2.1 absorbance units; in series [2], 2.29 absorbance units; in series [3] it was 2.06 absorbance units; in series [4] it was 2.32 absorbance units; in series [5], 2.21 absorbance units; in series [6], 1.56 absorbance units. Besides, the activity in [7] came to 1.53 absorbance units; in [8], 2.42 absorbance units; in [9], 2.47 absorbance units; in series [10] it was 1.93 absorbance units.
